The values below come from patent publication US7696171.

Like-named read-outs stand apart in the source and are kept apart here.

For experiment [1], the target named is FGF receptor (FGFR). Nature of the experiment: cell-based or functional assay.
Experiment [2] deals with FGF receptor (FGFR). Nature of the experiment: cell-based or functional assay. This is another data set of the same source.

“FGF-1 Glu87→Val/Pro134→Val mutant (in the WT* Cys117→Val background) (from UniProt P05230 16-155) (ligand)”: the mitogenic activity (NIH 3T3 fibroblast proliferation, EC50) (fold reduction) is 3 with FGF receptor (FGFR) [1] and 2 with FGF receptor (FGFR) [2].
On to “FGF-1 Lys12→Val/Asn95→Val mutant (in the WT* Cys117→Val background) (from UniProt P05230 16-155) (ligand)”, for which the mitogenic activity (NIH 3T3 fibroblast proliferation, EC50) (fold reduction) with FGF receptor (FGFR) [1] stood at 1000.
